Measured values reported in the supplement of paper PMC11246515.
± gives the standard deviation of the averaged measurements.

Assay: total protein half-life in vivo (active degradation + dilution); higher = more stable protein
[1] = E. coli NCM3722 delta-clpP delta-lon delta-hslV, growth: N-lim chemostat, doubling time 6 h
[2] = E. coli NCM3722 delta-clpP, growth: N-lim chemostat, doubling time 6 h
[3] = E. coli NCM3722 delta-hslV, growth: N-lim chemostat, doubling time 6 h
[4] = E. coli NCM3722 delta-lon, growth: N-lim chemostat, doubling time 6 h
[5] = E. coli NCM3722 delta-smpB, growth: N-lim chemostat, doubling time 6 h
[6] = wild type E. coli NCM3722, growth: C-lim chemostat, doubling time 3 h
[7] = wild type E. coli NCM3722, growth: C-lim chemostat, doubling time 6 h
[8] = wild type E. coli NCM3722, growth: C-lim chemostat, doubling time 12 h
[9] = wild type E. coli NCM3722, growth: N-lim chemostat, doubling time 6 h
[10] = wild type E. coli NCM3722, growth: N-lim chemostat, doubling time 12 h
[11] = wild type E. coli NCM3722, growth: P-lim chemostat, doubling time 6 h
[12] = wild type E. coli NCM3722, growth: P-lim chemostat, doubling time 12 h

Sequence	total protein half-life in vivo [1] [h]	total protein half-life in vivo [2] [h]	total protein half-life in vivo [3] [h]	total protein half-life in vivo [4] [h]	total protein half-life in vivo [5] [h]	total protein half-life in vivo [6] [h]	total protein half-life in vivo [7] [h]	total protein half-life in vivo [8] [h]	total protein half-life in vivo [9] [h]	total protein half-life in vivo [10] [h]	total protein half-life in vivo [11] [h]	total protein half-life in vivo [12] [h]
MNTARLNQGTPLLLNAVSKHYAENIVLNQLDLHIPAGQFVAVVGRSGGGKSTLLRLLAGLETPTAGDVLAGTTPLAEIQEDTRMMFQDARLLPWKSVIDNVGLGLKGQWRDAARRALAAVGLENRAGEWPAALSGGQKQRVALARALIHRPGLLLLDEPLGALDALTRLEMQDLIVSLWQEHGFTVLLVTHDVSEAVAMADRVLLIEEGKIGLDLTVDIPRPRRLGSVRLAELEAEVLQRVMQRGESETRLRKQG [P0AAI1]	5.9 ± 0.12	1.1										
MNTFSVSRLALALAFGVTLTACSSTPPDQRPSDQTAPGTSSRPILSAKEAQNFDAQHYFASLTPGAAAWNPSPITLPAQPDFVVGPAGTQGVTHTTIQAAVDAAIIKRTNKRQYIAVMPGEYQGTVYVPAAPGGITLYGTGEKPIDVKIGLSLDGGMSPADWRHDVNPRGKYMPGKPAWYMYDSCQSKRSDSIGVLCSAVFWSQNNGLQLQNLTIENTLGDSVDAGNHPAVALRTDGDQVQINNVNILGRQNTFFVTNSGVQNRLETNRQPRTLVTNSYIEGDVDIVSGRGAVVFDNTEFRVVNSRTQQEAYVFAPATLSNIYYGFLAVNSRFNAFGDGVAQLGRSLDVDANTNGQVVIRDSAINEGFNTAKPWADAVISNRPFAGNTGSVDDNDEIQRNLNDTNYNRMWEYNNRGVGSKVVAEAKK	5.8 ± 0.063	7.06 ± 1.3	6.54 ± 0.33	6.89 ± 0.2	5.993 ± 0.019	3.15 ± 0.05	6.27 ± 0.39	11.6 ± 0.95	6.28 ± 0.13	14.1 ± 0.59	6.3 ± 0.14	13.7 ± 0.19
MNTIASVTLPHHVHAPRYDRQQLQSRIVHFGFGAFHRAHQALLTDRVLNAQGGDWGICEISLFSGDQLMSQLRAQNHLYTVLEKGADGNQVIIVGAVHECLNAKLDSLAAIIEKFCEPQVAIVSLTITEKGYCIDPATGALDTSNPRIIHDLQTPEEPHSAPGILVEALKRRRERGLTPFTVLSCDNIPDNGHVVKNAVLGMAEKRSPELAGWIKEHVSFPGTMVDRIVPAATDESLVEISQHLGVNDPCAISCEPFIQWVVEDNFVAGRPAWEVAGVQMVNDVLPWEEMKLRMLNGSHSFLAYLGYLSGFAHISDCMQDRAFRHAARTLMLDEQAPTLQIKDVDLTQYADKLIARFANPALKHKTWQIAMDGSQKLPQRMLAGIRIHQGRETDWSLLALGVAGWMRYVSGVDDAGNAIDVRDPLSDKIRELVAGSSSEQRVTALLSLREVFGDDLPDNPHFVQAIEQAWQQIVQFGAHQALLNTLKI	5.54 ± 0.38					0.36 ± 0.057	0.863	0.917				
MNTIFSARIMKRLALTTALCTAFISAAHADDLNIKTMIPGVPQIDAESYILIDYNSGKVLAEQNADVRRDPASLTKMMTSYVIGQAMKAGKFKETDLVTIGNDAWATGNPVFKGSSLMFLKPGMQVPVSQLIRGINLQSGNDACVAMADFAAGSQDAFVGLMNSYVNALGLKNTHFQTVHGLDADGQYSSARDMALIGQALIRDVPNEYSIYKEKEFTFNGIRQLNRNGLLWDNSLNVDGIKTGHTDKAGYNLVASATEGQMRLISAVMGGRTFKGREAESKKLLTWGFRFFETVNPLKVGKEFASEPVWFGDSDRASLGVDKDVYLTIPRGRMKDLKASYVLNSSELHAPLQKNQVVGTINFQLDGKTIEQRPLVVLQEIPEGNFFGKIIDYIKLMFHHWFG [P0AEB2]	6.19 ± 0.7	6.72 ± 0.74	6.22 ± 0.15	6.61 ± 0.36	6.03 ± 0.14	3.24 ± 0.07	6.05 ± 0.17	12 ± 2.8	6.23 ± 0.14	14.5 ± 2	6.1 ± 0.093	13.2 ± 0.43
MNTLRIGLVSISDRASSGVYQDKGIPALEEWLTSALTTPFELETRLIPDEQAIIEQTLCELVDEMSCHLVLTTGGTGPARRDVTPDATLAVADREMPGFGEQMRQISLHFVPTAILSRQVGVIRKQALILNLPGQPKSIKETLEGVKDAEGNVVVHGIFASVPYCIQLLEGPYVETAPEVVAAFRPKSARRDVSE [P0AF03]	4.79 ± 0.77	4.24 ± 0.53	4.594 ± 0.04	5.05 ± 0.59	4.82 ± 0.54	2.8 ± 0.21	5.83 ± 0.49	9.32 ± 0.82	4.61 ± 0.27	8.09 ± 0.46	5.41 ± 0.4	11.3 ± 0.16
MNTRWQQAGQKVKPGFKLAGKLVLLTALRYGPAGVAGWAIKSVARRPLKMLLAVALEPLLSRAANKLAQRYKR [P0AFV8]	3.32 ± 0.39											
MNTSHVRVVTHMCGFLVWLYSLSMLPPMVVALFYKEKSLFVFFITFVIFFCIGGGAWYTTKKSGIQLRTRDGFIIIVMFWILFSVISAFPLWIDSELNLTFIDALFEGVSGITTTGATVIDDVSSLPRAYLYYRSQLNFIGGLGVIVLAVAVLPLLGIGGAKLYQSEMPGPFKDDKLTPRLADTSRTLWITYSLLGIACIVCYRLAGMPLFDAICHGISTVSLGGFSTHSESIGYFNNYLVELVAGSFSLLSAFNFTLWYIVISRKTIKPLIRDIELRFFLLIALGVIIVTSFQVWHIGMYDLHGSFIHSFFLASSMLTDNGLATQDYASWPTHTIVFLLLSSFFGGCIGSTCGGIKSLRFLILFKQSKHEINQLSHPRALLSVNVGGKIVTDRVMRSVWSFFFLYTLFTVFFILVLNGMGYDFLTSFATVAACINNMGLGFGATASSFGVLNDIAKCLMCIAMILGRLEIYPVIILFSGFFWRS		> 8	5.64 ± 0.43		6.77	> 4		13.5		> 16	> 8	
MNTTPSQRLGFLHHIRLVPLFACILGGILVLFALSSALAGYFLWQADRDQRDVTAEIEIRTGLANSSDFLRSARINMIQAGAASRIAEMEAMKRNIAQAESEIKQSQQGYRAYQNRPVKTPADEALDTELNQRFQAYITGMQPMLKYAKNGMFEAIINHESEQIRPLDNAYTDILNKAVKIRSTRANQLAELAHQRTRLGGMFMIGAFVLALVMTLITFMVLRRIVIRPLQHAAQRIEKIASGDLTMNDEPAGRNEIGRLSRHLQQMQHSLGMTVGTVRQGAEEIYRGTSEISAGNADLSSRTEEQAAAIEQTAASMEQLTATVKQNADNAHHASKLAQEASIKASDGGQTVSGVVKTMGAISTSSKKISEITAVINSIAFQTNILALNAAVEAARAGEQGRGFAVVASEVRTLASRSAQAAKEIEGLISESVRLIDLGSDEVATAGKTMSTIVDAVASVTHIMQEIAAASDEQSRGITQVSQAISEMDKVTQQNASLVEEASAAAVSLEEQAARLTEAVDVFRLHKHSVSAEPRGAGEPVSFATV						2.39 ± 0.0043	4.42 ± 0.23	6.36 ± 0.25				
MNVIAILNHMGVYFKEEPIRELHRALERLNFQIVYPNDRDDLLKLIENNARLCGVIFDWDKYNLELCEEISKMNENLPLYAFANTYSTLDVSLNDLRLQISFFEYALGAAEDIANKIKQTTDEYINTILPPLTKALFKYVREGKYTFCTPGHMGGTAFQKSPVGSLFYDFFGPNTMKSDISISVSELGSLLDHSGPHKEAEQYIARVFNADRSYMVTNGTSTANKIVGMYSAPAGSTILIDRNCHKSLTHLMMMSDVTPIYFRPTRNAYGILGGIPQSEFQHATIAKRVKETPNATWPVHAVITNSTYDGLLYNTDFIKKTLDVKSIHFDSAWVPYTNFSPIYEGKCGMSGGRVEGKVIYETQSTHKLLAAFSQASMIHVKGDVNEETFNEAYMMHTTTSPHYGIVASTETAAAMMKGNAGKRLINGSIERAIKFRKEIKRLRTESDGWFFDVWQPDHIDTTECWPLRSDSTWHGFKNIDNEHMYLDPIKVTLLTPGMEKDGTMSDFGIPASIVAKYLDEHGIVVEKTGPYNLLFLFSIGIDKTKALSLLRALTDFKRAFDLNLRVKNMLPSLYREDPEFYENMRIQELAQNIHKLIVHHNLPDLMYRAFEVLPTMVMTPYAAFQKELHGMTEEVYLDEMVGRINANMILPYPPGVPLVMPGEMITEESRPVLEFLQMLCEIGAHYPGFETDIHGAYRQADGRYTVKVLKEESKK [P0A9H3]		5.68										11.6
MNVNFFVTCIGDALKSRMARDSVLLLEKLGCRVNFPEKQGCCGQPAINSGYIKEAIPGMKNLIAALEDNDDPIISPAGSCTYAVKSYPTYLADEPEWASRAAKVAARMQDLTSFIVNKLGVVDVGASLQGRAVYHPSCSLARKLGVKDEPLTLLKNVRGLELLTFAEQDTCCGFGGTFSVKMAEISGEMVKEKVAHLMEVRPEYLIGADVSCLLNISGRLQREGQKVKVMHIAEVLMSR	4.88 ± 0.35	2.8	3.22 ± 0.43	4.91	3.17 ± 0.06	3.05 ± 0.46	4.67 ± 0.46	8.01 ± 0.23	4.38 ± 0.39	6.19 ± 1.3	4.49	8.05 ± 0.092
